Source: patent US20210115146A1

Key:
[1] = molecular target: human EGFR (cell surface) (human) (UniProt P00533); assay: FACS binding to A431 cells, lower panel and table; curve flat
[2] = molecular target: human EGFR (cell surface) (human) (UniProt P00533); assay: FACS binding to A431 cells, upper panel and table; EC50 cell reads N/A, curve flat
[3] = molecular target: Macaca fascicularis EGFR (cell surface) (Macaca fascicularis); assay: FACS binding to W562.CHOK1.cPro1.H6 cells (monkey EGFR), upper panel and table; curve flat
[4] = molecular target: mouse EGFR (cell surface) (mouse) (UniProt Q01279); assay: FACS binding to W562-CHO-K1.mPro1.F3 cells (mouse EGFR), lower panel and table; EC50 cell reads N/A, curve flat
[5] = molecular target: Macaca fascicularis EGFR (cell surface) (Macaca fascicularis); assay: FACS binding to W562-CHO-K1.cPro1.H6 cells (monkey EGFR), lower panel and table; EC50 cell reads N/A, curve flat
[6] = molecular target: human EGFR (cell surface) (human) (UniProt P00533); assay: FACS binding to A431 cells, lower panel and table; the curve is flat at the baseline, so this is the fit of a flat curve (see non_binding)
[7] = molecular target: human EGFR (cell surface) (human) (UniProt P00533); assay: FACS competition on A431 cells, blocked ligand EGF-biotin, MFI is the EGF-biotin signal; lower panel and table; IC50 cell reads N/A, no inhibition
[8] = molecular target: human EGFR (cell surface) (human) (UniProt P00533); assay: FACS competition on A431 cells, blocked ligand EGF-biotin, MFI is the EGF-biotin signal; upper panel and table; IC50 cell reads N/A, no inhibition
[9] = molecular target: Macaca fascicularis EGFR (cell surface) (Macaca fascicularis); assay: FACS binding to W562.CHOK1.cPro1.H6 cells (monkey EGFR), upper panel and table; the curve is flat at the baseline, so this is the fit of a flat curve (see non_binding)
[10] = molecular target: mouse EGFR (cell surface) (mouse) (UniProt Q01279); assay: FACS binding to mouse EGFR cells; the table head prints W562.CHOK1.cPro1.H6; EC50 cell reads N/A, curve flat

TOP MFI [1]: 58.5 MFI
Top MFI [2]: 35.1 MFI
Top MFI [3]: 35.6 MFI
TOP MFI [4]: 85.6 MFI
TOP MFI [5]: 54.9 MFI
EC50 [6]: 0.01 nM
Bottom MFI [7]: 3890 MFI
Bottom MFI [8]: 4680 MFI
EC50 [9]: 0.07 nM
Top MFI [10]: 32.3 MFI
Substance: Isotype (antibody)
